± gives the uncertainty stated by the source.
B1: Histone-lysine N-methyltransferase SETD2, residues 2382 to 2430; numbered along this chain, Q9BYW2 (parent)
chain: SPPKPKTIVLPPNWKTARDPEGKIYYYHVITRQTQWDPPTWESPGDDAS
B2: POU domain, class 5, transcription factor 1, residues 134 to 212; numbered along this chain, Q01860 (parent)
chain: EESQDIKALQKELEQFAKLLKQKRITLGYTQADVGLTLGVLFGKVFSQTTICRFEALQLSFKNMCKLRPLLQKWVEEAD

Variants of: B1
Assay: abundance fitness (aPCA) (normalised: wild type 0, dead -1); higher = more abundant; growth selection in yeast, the domain comes from the species named
Details: Homo sapiens

Abundance fitness of substitutions, site by site:
P20: T 0.006 ± 0.033, W -0.367 ± 0.054, A -0.166 ± 0.031, R 0.017 ± 0.032, H -0.157 ± 0.038, F -0.398 ± 0.059, S -0.106 ± 0.036, Y -0.331 ± 0.052, I -0.165 ± 0.045, V -0.31 ± 0.033, C -0.348 ± 0.043, G -0.03 ± 0.031, D -0.122 ± 0.038, L -0.223 ± 0.032, K 0.122 ± 0.039, E -0.074 ± 0.053, N -0.008 ± 0.035, M -0.078 ± 0.034, Q 0.015 ± 0.045
T16: G -0.203 ± 0.057, I -0.15 ± 0.075, P -0.341 ± 0.12, A 0.027 ± 0.041, S 0.168 ± 0.035, K -0.059 ± 0.092, C -0.213 ± 0.12, Y -0.164 ± 0.1, Q 0.136 ± 0.064, M 0.218 ± 0.039, D -0.47 ± 0.091, H 0.095 ± 0.11, L 0.049 ± 0.048, R -0.052 ± 0.045, W -0.026 ± 0.052, N -0.723 ± 0.15
E21: D -0.136 ± 0.12, A -0.126 ± 0.065, C -0.134 ± 0.11
P5: T 0.211 ± 0.045, S 0.163 ± 0.044, H -0.17 ± 0.13, V 0.162 ± 0.034, W -0.63 ± 0.12, K 0.159 ± 0.092, D 0.133 ± 0.082, N 0.294 ± 0.046, G 0.118 ± 0.033, R -0.006 ± 0.035, Y -0.066 ± 0.098, A 0.102 ± 0.058, I 0.077 ± 0.035, F 0.133 ± 0.078, E 0.057 ± 0.035, M 0.199 ± 0.065, Q 0.007 ± 0.085, C -0.396 ± 0.079, L 0.125 ± 0.034
P2: M 0.026 ± 0.1, T 0.178 ± 0.034, K -0.087 ± 0.054, G 0.045 ± 0.035, L 0.317 ± 0.065, N 0.461 ± 0.098, F 0.031 ± 0.14, S 0.237 ± 0.058, I 0.712 ± 0.1, Q -0.007 ± 0.033, H 0.314 ± 0.17, A 0.131 ± 0.068, R -0.118 ± 0.062, Y 0.539 ± 0.1, V -0.065 ± 0.051, E -0.224 ± 0.082, W -0.293 ± 0.094
R18: Y -0.105 ± 0.062, G -0.79 ± 0.095, I -0.095 ± 0.15, N 0.099 ± 0.2, S -0.543 ± 0.035, T -0.112 ± 0.055, D -0.817 ± 0.31, W -0.31 ± 0.095, V -0.26 ± 0.066, P -0.576 ± 0.17, E -0.248 ± 0.1, F -0.424 ± 0.094, A -0.467 ± 0.07, L -0.404 ± 0.045, M -0.086 ± 0.059, K -0.072 ± 0.062, H -0.286 ± 0.26, Q -0.482 ± 0.14
P12: H -0.528 ± 0.21, T 0.092 ± 0.062, W -0.309 ± 0.062, M -0.007 ± 0.036, R 0.009 ± 0.045, E 0.105 ± 0.084, K 0.048 ± 0.073, Q -0.238 ± 0.09, G -0.398 ± 0.039, D -0.013 ± 0.076, A 0.153 ± 0.048, C -0.844 ± 0.23, S -0.195 ± 0.08, I -0.451 ± 0.16, F -0.402 ± 0.13
K15: H -0.153 ± 0.41, R 0.11 ± 0.39, Q -0.291 ± 0.26
V9: Y -0.362 ± 0.14, R 0.025 ± 0.044, A -0.187 ± 0.045, H -0.068 ± 0.095, P -0.538 ± 0.15, L -0.075 ± 0.046, Q -0.097 ± 0.054, M 0.228 ± 0.08, F 0.049 ± 0.086, I 0.132 ± 0.075, E -0.255 ± 0.09, K 0.022 ± 0.042, N 0.21 ± 0.11, C 0.084 ± 0.09, T 0.123 ± 0.033, S -0.093 ± 0.056, D 0.486 ± 0.089, W -0.24 ± 0.07, G -0.167 ± 0.037
A17: R 0.023 ± 0.036, N 0.038 ± 0.14, G -0.022 ± 0.034, H -0.728 ± 0.41, W -0.77 ± 0.13, D -0.092 ± 0.054, C -0.146 ± 0.078, S -0.155 ± 0.058, V -0.242 ± 0.045, M -0.024 ± 0.08, F -0.543 ± 0.15, Q -0.845 ± 0.28, T -0.217 ± 0.074, Y -0.128 ± 0.07, L -0.212 ± 0.066, K -0.131 ± 0.1, E -0.301 ± 0.061, P -0.747 ± 0.042, I -0.184 ± 0.05
I8: P -0.282 ± 0.098, Q -0.056 ± 0.065, R 0.06 ± 0.04, T 0.021 ± 0.034, F -0.021 ± 0.086, N 0.112 ± 0.075, K 0.03 ± 0.034, W 0.001 ± 0.032, Y -0.108 ± 0.092, G 0.037 ± 0.041, M 0.179 ± 0.096, L 0.165 ± 0.035, V 0.201 ± 0.038, A -0.1 ± 0.058, C 0.105 ± 0.067, D -0.164 ± 0.095, E -0.096 ± 0.062
P3: Y 0.335 ± 0.051, A -0.191 ± 0.076, I 0.115 ± 0.17, Q 0.262 ± 0.04, R 0.274 ± 0.054, W 0.064 ± 0.068, M 0.369 ± 0.1, N 0.585 ± 0.097, L 0.105 ± 0.068, S 0.281 ± 0.049, K 0.325 ± 0.034, C -0.508 ± 0.33, F 0.197 ± 0.12, V 0.444 ± 0.066, G 0.129 ± 0.055, E 0.408 ± 0.082, D 0.371 ± 0.12, T 0.155 ± 0.075, H 0.126 ± 0.12
K4: I -0.154 ± 0.074, S 0.007 ± 0.037, T -0.275 ± 0.057, R -0.532 ± 0.057, F -0.41 ± 0.12, P -0.386 ± 0.1, G -0.97 ± 0.074, N -0.144 ± 0.091, E -0.908 ± 0.12, C -0.564 ± 0.13, Q -0.541 ± 0.13, V -0.573 ± 0.086, H -0.221 ± 0.059, L -0.293 ± 0.034, Y -0.046 ± 0.086, M -0.051 ± 0.076, A -0.836 ± 0.058, D -0.927 ± 0.14, W -0.798 ± 0.081
L10: N -0.46 ± 0.15, D -0.489 ± 0.15, Y -0.249 ± 0.12, M -0.314 ± 0.1, H -0.255 ± 0.1, C -0.191 ± 0.059, R -0.647 ± 0.06, S -0.684 ± 0.046, I -0.026 ± 0.12, V -0.242 ± 0.042, T -0.431 ± 0.11, Q -0.529 ± 0.32, G -0.564 ± 0.035, F -0.142 ± 0.1, A -0.759 ± 0.072, K -0.553 ± 0.2
T7: I -0.212 ± 0.15, A 0.028 ± 0.031, M 0.026 ± 0.035, F 0.278 ± 0.094, E -0.045 ± 0.048, D -0.134 ± 0.079, Y -0.155 ± 0.15, L -0.214 ± 0.035, Q 0.013 ± 0.089, N 0.127 ± 0.099, P -0.375 ± 0.066, W -0.462 ± 0.095, G 0.138 ± 0.033, R 0.094 ± 0.045, H 0.116 ± 0.12, C -0.062 ± 0.037, V -0.148 ± 0.057, S 0.105 ± 0.039
D19: L -0.407 ± 0.068, S -0.103 ± 0.043, M -0.172 ± 0.089, R -0.535 ± 0.042, Q -0.442 ± 0.039, T 0.102 ± 0.069, Y -0.601 ± 0.095, P -0.426 ± 0.1, V -0.404 ± 0.048, W -0.889 ± 0.095, I -0.584 ± 0.26, E -0.314 ± 0.08, A -0.537 ± 0.096, C -0.725 ± 0.16, H 0.027 ± 0.2
K6: A -0.032 ± 0.05, Y -0.227 ± 0.1, W -0.393 ± 0.097, M 0.018 ± 0.048, E -0.19 ± 0.062, G 0.037 ± 0.053, R -0.046 ± 0.032, I -0.037 ± 0.077, T -0.148 ± 0.073, D -0.074 ± 0.14, L -0.339 ± 0.041, Q 0.07 ± 0.034, S 0.103 ± 0.059, N 0.018 ± 0.085, F -0.121 ± 0.05, P -0.35 ± 0.1, C -0.303 ± 0.091
P11: I -0.84 ± 0.39, F -0.43 ± 0.064, K -0.281 ± 0.055, S -0.453 ± 0.11, D -0.156 ± 0.06, E -0.5 ± 0.069, N -0.371 ± 0.076, A -0.388 ± 0.069, L -0.279 ± 0.054, Q -0.186 ± 0.084, Y -0.666 ± 0.18, C -0.694 ± 0.11, W -0.811 ± 0.12, V -0.689 ± 0.11, M -0.374 ± 0.049, T -0.682 ± 0.13
N13: S -0.362 ± 0.078, H -0.052 ± 0.039, Y 0.107 ± 0.075, M 0.064 ± 0.094, L -0.039 ± 0.049, A -0.581 ± 0.067, V -0.523 ± 0.075, W -0.144 ± 0.097, D -0.059 ± 0.075, F 0.127 ± 0.082, P -0.692 ± 0.084, Q -0.148 ± 0.13, G -0.191 ± 0.055, E -0.61 ± 0.15, T -0.123 ± 0.078, C -0.292 ± 0.056
S1: Y -0.521 ± 0.28, E -0.534 ± 0.32, A -0.597 ± 0.25, V -0.252 ± 0.14, C 0.007 ± 0.08, F 0.246 ± 0.088, N 0.442 ± 0.15
W14: H -0.615 ± 0.22, D -0.74 ± 0.36, M -0.721 ± 0.2, C -1.02 ± 0.3, A -0.865 ± 0.054, L -0.925 ± 0.06, G -0.855 ± 0.086, E -0.868 ± 0.078, Y -0.566 ± 0.42, Q -0.763 ± 0.24, P -1.03 ± 0.32, T -0.935 ± 0.19, S -0.925 ± 0.1, V -0.882 ± 0.097

Variants of: B2
Assay: as above
Details: Homo sapiens

Abundance fitness, by site and new letter:
A78: T -0.014 ± 0.26, V 0.216 ± 0.092
D79: G -0.312 ± 0.13, E -0.067 ± 0.21, R -0.187 ± 0.18, V 0.111 ± 0.13, S -0.374 ± 0.22, A -0.741 ± 0.25, T -0.122 ± 0.21, P 0.393 ± 0.19, Y -0.505 ± 0.49, C -0.509 ± 0.35

From the Human Domainome abundance scans (Beltran et al. 2025)
